Data published in paper doi:10.1101/2025.08.29.673170.

Target: F-actin (pre-polymerized actin filaments) (UniProt P68135)
Experiment: co-sedimentation

10xHis-SNAP-EzrABD (domain or fragment)
duty ratio KABD = kon/(kon + koff): 0.14

10xHis-SNAP-EzrABD K577A (domain or fragment)
Kd: 10 µM | duty ratio KABD = kon/(kon + koff): 0.1

10xHis-SNAP-UtrABD (from UniProt P46939 1-261) (domain or fragment)
Kd: 0.4 µM | duty ratio KABD = kon/(kon + koff): 0.71
